Here are results for 18 variants from FireProtDB (doi:10.1006/jmbi.1993.1508).

The labels stand for the following.
B1: Ribonuclease, P00648 (parent)
chain: MMKMEGIALKKRLSWISVCLLVLVSAAGMLFSTAAKTETSSHKAHTEAQVINTFDGVADYLQTYHKLPDNYITKSEAQALGWVASKGNLADVAPGKSIGGDIFSNREGKLPGKSGRTWREADINYTSGFRNSDRILYSSDWLIYKTTDHYQTFTKIR

This data set covers variants of B1. As to conditions: Bacillus amyloliquefaciens; pH 6.3; 25 °C; Urea; Fluorescence; MES 50 mM; reversible: yes; structure 1BNI; whole UniProt chain shown.

As for MMKMEGIALKKRLSWISVCLLVLVSAAGMLFSTAAKTETSSHKAHTEAQVINTFDGVADYLQTYHKLPDNYITKSEAQALGWVASKGNLADVAPGKSIGGDIFSNREGKLPGKSGRTWREADINYTSGFRNSDRILYSSDWLIYKTTDHYQTFTRIR [K155R], the “ddG of mutation (higher = less stable)” value is -0.78 kcal/mol, the denaturant m value came out at 1.91 kcal/mol/M, the “denaturant midpoint (higher = more stable)” value (shortened to “denaturant midpoint”) is 5 M and the unfolding free energy came to 9.6 kcal/mol.
Consider MMKMEGIALKKRLSWISVCLLVLVSAAGMLFSTAAKTETSSHKAHTEAQVINTFDGVADYLQTYHKLPDNYITKSEAQALGWVASKGNLADVAPGKSIGGDIFSNREGKLPGKSGRTWREADINYTSGFRNSDRIVYSSDWLIYKTTDHYQTFTKIR [L136V], for which the “ddG of mutation (higher = less stable)” value came to 0.32 kcal/mol, the denaturant m value turned out to be 1.92 kcal/mol/M, the “denaturant midpoint” value was found to be 4.4 M and the unfolding free energy came to 8.5 kcal/mol.
Take MMKMEGIALKKRLSWISVCLLVLVSAAGMLFSTAAKTETSSHKAHTEAQVINTFDGVADYLQTYHKLPDNYITKSEAQALGWVASKGNLADVAPGKSIGGDVFSNREGKLPGKSGRTWREADINYTSGFRNSDRILYSSDWLIYKTTDHYQTFTKIR [I102V]: the “ddG of mutation (higher = less stable)” value turned out to be 0.32 kcal/mol, the denaturant m value is 1.93 kcal/mol/M, the “denaturant midpoint” value is 4.4 M and the unfolding free energy turned out to be 8.5 kcal/mol.
With MMKMEGIALKKRLSWISVCLLVLVSAAGMLFSTAAKTETSSHKAHTEAQVINTFDGVADYLQTYHKLPDNYITKSEAQALGWVASKGNLADVAPGKSIGGDIFSNREGKLPGKSGRTWREADINYVSGFRNSDRILYSSDWLIYKTTDHYQTFTKIR [T126V], the “ddG of mutation (higher = less stable)” value was -0.18 kcal/mol, the denaturant m value came out at 1.91 kcal/mol/M, the “denaturant midpoint” value was 4.7 M and the unfolding free energy was 9 kcal/mol.
For MMKMEGIALKKRLSWISVCLLVLVSAAGMLFSTAAKTETSSHKAHTEAQVINTFDGVADYLQTYHKLPDNYITKSEAQALGWVASKGNLADVAPGKSIGGDIFSNREGRLPGKSGRTWREADINYTSGFRNSDRILYSSDWLIYKTTDHYQTFTKIR [K109R], in that order: 0.02 kcal/mol, 2.04 kcal/mol/M, 4.3 M and 8.8 kcal/mol.
On the same counts, the results for MMKMEGIALKKRLSWISVCLLVLVSAAGMLFSTAAKTETSSHKAHTEAQVINTFDGVADYLQRYHKLPDNYITKSEAQALGWVASKGNLADVAPGKSIGGDIFSNREGKLPGKSGRTWREADINYTSGFRNSDRILYSSDWLIYKTTDHYQTFTKIR [T63R] are -0.78 kcal/mol, 1.98 kcal/mol/M, 4.8 M and 9.6 kcal/mol.
With MMKMEGIALKKRLSWISVCLLVLVSAAGMLFSTAAKTETSSHKAHTEAQVINTFDGVADYLQTYHKLPDNYITKSEAQALGWVASKGNLADVAPGKSIGGDIFSNREGKLPGKSGRTWREADINYTSGFRNADRILYSSDWLIYKTTDHYQTFTKIR [S132A], the “ddG of mutation (higher = less stable)” value was -0.28 kcal/mol, the denaturant m value was 2.02 kcal/mol/M, the “denaturant midpoint” value came to 4.51 M and the unfolding free energy was found to be 9.1 kcal/mol.
For MMKMEGIALKKRLSWISVCLLVLVSAAGMLFSTAAKTETSSHKAHTEAQVINTFDGVADYLQTYHKLPDNYITKSEAQALGWVASKGNLAEVAPGKSIGGDIFSNREGKLPGKSGRTWREADINYTSGFRNSDRILYSSDWLIYKTTDHYQTFTKIR [D91E], in that order: 0.32 kcal/mol, 1.84 kcal/mol/M, 4.6 M and 8.5 kcal/mol.
On the same counts, the results for MMKMEGIALKKRLSWISVCLLVLVSAAGMLFSTAAKTETSSHKAHTEAQVINTFDGVADYLIRYHRLPDNYITKSEAQALGWVASKGNLADVAPGKSIGGDIFSNREGKLPSASGRTWREADINYTSGFRNSDRILYSSDWLIYKTTDHYQTFTRIR [Q62I T63R K66R G112S K113A K155R] are -2.98 kcal/mol, 1.86 kcal/mol/M, 6.34 M and 11.8 kcal/mol.
MMKMEGIALKKRLSWISVCLLVLVSAAGMLFSTAAKTETSSHKAHTEAQVINTFDGVADYLQTYHKLPDNYITKSEAQALGWVASKGNLADVAPGKSIGGDIFSNREGKLPSKSGRTWREADINYTSGFRNSDRILYSSDWLIYKTTDHYQTFTKIR [G112S]: the “ddG of mutation (higher = less stable)” value is -0.98 kcal/mol, the denaturant m value worked out at 2.03 kcal/mol/M, the “denaturant midpoint” value is 4.8 M and the unfolding free energy stood at 9.8 kcal/mol.
On the same counts, the results for MMKMEGIALKKRLSWISVCLLVLVSAAGMLFSTAAKTETSSHKAHTEAQVINTFDGVADYLQTYHRLPDNYITKSEAQALGWVASKGNLADVAPGKSIGGDIFSNREGKLPGKSGRTWREADINYTSGFRNSDRILYSSDWLIYKTTDHYQTFTKIR [K66R] are -0.88 kcal/mol, 2.08 kcal/mol/M, 4.6 M and 9.7 kcal/mol.
Turning to MMKMEGIALKKRLSWISVCLLVLVSAAGMLFSTAAKTETSSHKAHTEAQVINTFDGVADYLITYHKLPDNYITKSEAQALGWVASKGNLADVAPGKSIGGDIFSNREGKLPGKSGRTWREADINYTSGFRNSDRILYSSDWLIYKTTDHYQTFTKIR [Q62I], the “ddG of mutation (higher = less stable)” value is -1.38 kcal/mol, the denaturant m value was found to be 2.02 kcal/mol/M, the “denaturant midpoint” value was 5 M and the unfolding free energy was 10.2 kcal/mol.
For the variant MMKMEGIALKKRLSWISVCLLVLVSAAGMLFSTAAKTETSSHKAHTEAQVINTFDGVADYLQTYHKLPDNYITKSEAQALGWVASKGNLADVAPGKSIGGDIFSNREGKLPGASGRTWREADINYTSGFRNSDRILYSSDWLIYKTTDHYQTFTKIR [K113A], the “ddG of mutation (higher = less stable)” value is -0.98 kcal/mol, the denaturant m value was 2.09 kcal/mol/M, the “denaturant midpoint” value was determined as 4.7 M and the unfolding free energy stood at 9.8 kcal/mol.
As to MMKMEGIALKKRLSWISVCLLVLVSAAGMLFSTAAKTETSSHKAHTEAQVINTFDGVADYLQTYKKLPDNYITKSEAQALGWVASKGNLADVAPGKSIGGDIFSNREGKLPGKSGRTWREADINYTSGFRNSDRILYSSDWLIYKTTDHYQTFTKIR [H65K], the “ddG of mutation (higher = less stable)” value turned out to be 0.92 kcal/mol, the denaturant m value is 2 kcal/mol/M, the “denaturant midpoint” value came to 3.9 M and the unfolding free energy amounted to 7.9 kcal/mol.
On the same counts, the results for MMKMEGIALKKRLSWISVCLLVLVSAAGMLFSTAAKTETSSHKAHTEAQVINTFDGVADYLQTYHKLPDNYITKSEAQALGWVASKGNLADVAPGKSIGGDIFSNREGKLPGKSGRTWREADINYTSGFRNSDRILYSSDWLIYKTTDHYATFTKIR [Q151A] are 0.02 kcal/mol, 1.98 kcal/mol/M, 4.4 M and 8.8 kcal/mol.
On the same counts, the results for MMKMEGIALKKRLSWISVCLLVLVSAAGMLFSTAAKTETSSHKAHTEAQVINTFDGVADYLQTYHKLPDNYITKSEAQALGWVASKGNLADVAPGKSIGGDIFSNREGKLPGKSGRTWREADINYTSGFRNSDRLLYSSDWLIYKTTDHYQTFTKIR [I135L] are 0.02 kcal/mol, 1.98 kcal/mol/M, 4.4 M and 8.8 kcal/mol.
On the same counts, the results for MMKMEGIALKKRLSWISVCLLVLVSAAGMLFSTAAKTETSSHKAHTEAQVINTFDGVADYLIRYHRLPDNYITKSEAQALGWVASKGNLADVAPGKSIGGDIFSNREGKLPGKSGRTWREADINYTSGFRNSDRILYSSDWLIYKTTDHYQTFTKIR [Q62I T63R K66R] are -1.98 kcal/mol, 2 kcal/mol/M, 5.42 M and 10.8 kcal/mol.
MMKMEGIALKKRLSWISVCLLVLVSAAGMLFSTAAKTETSSHKAHTEAQVINTFDGVADYLQTYHKLPDNYITKSEASALGWVASKGNLADVAPGKSIGGDIFSNREGKLPGKSGRTWREADINYTSGFRNSDRILYSSDWLIYKTTDHYQTFTKIR [Q78S]: the “ddG of mutation (higher = less stable)” value was -0.28 kcal/mol, the denaturant m value is 2.05 kcal/mol/M, the “denaturant midpoint” value came out at 4.4 M and the unfolding free energy was determined as 9.1 kcal/mol.
